Laboratory results taken from patent US20220125891A1 (OSAKA UNIVERSITY, published 2022).
Positions of bridges follow the written chain, without caps; N, C: chain ends. Non-standard residues stand in square brackets, D forms with d. No end group written: not given here. NMeA = CN[C@@H](C)C(=O)O; dNMeA = CN[C@H](C)C(=O)O

B1: PP7 (peptide)
peptide: [NMeA]NFNSAYYRAIWD
modifications: lactam N-13
B2: PP9 (peptide)
peptide: [dNMeA]TYGHSSWYKIWD
modifications: lactam N-13
B3: PP20 (peptide)
peptide: [NMeA]KFWIHHSFED
modifications: lactam N-11
B4: PP21 (peptide)
peptide: [NMeA]NSWYKIWGLD
modifications: lactam N-11
B5: PP14 (peptide)
peptide: [NMeA]RFGVWSWIYPD
modifications: lactam N-12
B6: PP12 (peptide)
peptide: [NMeA]RYAVYQWIYPD
modifications: lactam N-12
B7: PP24 (peptide)
peptide: [NMeA]WIWDFWNED
modifications: lactam N-10
B8: PP13 (peptide)
peptide: [NMeA]RFRQWKWVYPD
modifications: lactam N-12
B9: PP19 (peptide)
peptide: [NMeA]VFYKIWYNWD
modifications: lactam N-11

Biological target: T1, full-length human Regnase-1 with a FLAG tag on the N-terminal side and a biotin ligase BirA recognition … (human, UniProt Q5D1E8 1-599, biotinylated where required ; Biotinylated at the BirA recognition sequence where required. That sequence is not in the letters.)
T1 construct: Expressed in Expi293 cells, purified on FLAG M2 agarose and by gel filtration; also called full-length Regnase-1; human full-length Regnase-1
T1 sequence: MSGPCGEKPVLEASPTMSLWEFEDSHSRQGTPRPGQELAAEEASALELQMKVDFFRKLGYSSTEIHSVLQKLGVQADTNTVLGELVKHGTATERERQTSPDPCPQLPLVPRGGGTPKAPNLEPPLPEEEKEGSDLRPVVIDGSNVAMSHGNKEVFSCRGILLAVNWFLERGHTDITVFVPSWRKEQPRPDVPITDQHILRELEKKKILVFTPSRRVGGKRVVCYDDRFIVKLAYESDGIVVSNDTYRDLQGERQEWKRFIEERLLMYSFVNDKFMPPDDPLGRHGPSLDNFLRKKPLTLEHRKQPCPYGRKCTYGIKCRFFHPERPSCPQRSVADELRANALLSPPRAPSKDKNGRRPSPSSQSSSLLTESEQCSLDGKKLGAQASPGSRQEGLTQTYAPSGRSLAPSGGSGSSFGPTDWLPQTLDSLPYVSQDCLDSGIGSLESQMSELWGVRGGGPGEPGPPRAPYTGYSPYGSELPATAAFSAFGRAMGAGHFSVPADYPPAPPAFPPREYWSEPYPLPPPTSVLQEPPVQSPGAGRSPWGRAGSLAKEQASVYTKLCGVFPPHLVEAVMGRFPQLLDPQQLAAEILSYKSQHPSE
Assay: affinity selection-MS (SEC, LC/MS), 1 µM each

Binder | AS-MS ratio(%)
B1 | 15.8
B2 | 14.8
B3 | 85
B4 | 15.1
B5 | 4.2
B6 | 21
B7 | 51.1
B8 | 0.1
B9 | 2.1

Biological target: T2, ΔCTD_Reg1 (human Regnase-1 amino acids 1 to 546, FLAG tag on the N-terminal side, BirA recognition sequence … (human))
Assay: cell-based or functional assay

Binder | IC50, phosphorylation by TBK1 [µM]
B1 | 4.7
B2 | 6.6
B3 | > 62.1
B4 | 11.7
B5 | 5.2
B6 | 22.5
B7 | 27.3
B8 | 17.7
B9 | 4.6

Biological target: T3, Reg1_301-599 (human Regnase-1 amino acids 301 to 599, FLAG tag on the N-terminal side, BirA recognition … (human))
T3 sequence (Q5D1E8 301-599, looked up): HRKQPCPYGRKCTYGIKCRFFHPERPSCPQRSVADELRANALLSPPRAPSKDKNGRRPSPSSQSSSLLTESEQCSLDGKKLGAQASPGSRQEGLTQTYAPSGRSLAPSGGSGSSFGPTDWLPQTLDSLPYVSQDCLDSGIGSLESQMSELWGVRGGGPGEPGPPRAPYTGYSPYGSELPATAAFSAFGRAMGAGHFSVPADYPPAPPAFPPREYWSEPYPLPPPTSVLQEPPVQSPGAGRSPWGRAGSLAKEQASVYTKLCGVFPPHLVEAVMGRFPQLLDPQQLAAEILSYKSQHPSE
Assay: cell-based or functional assay

Binder | IC50, phosphorylation by TBK1 [µM]
B1 | 4.6
B2 | 7.9
B3 | > 62.1
B4 | 17
B5 | 6.8
B6 | 19.6
B7 | 34.8
B8 | 18
B9 | 5.8

Biological target: T1, full-length human Regnase-1 with a FLAG …
Assay: cell-based or functional assay

Binder | IC50, phosphorylation by TBK1 [µM]
B1 | 2.2
B2 | 4.2
B3 | 38.5
B4 | 13.5
B5 | 3.1
B6 | 12.7
B7 | 35.7
B8 | 8.4
B9 | 3.7

Biological target: T1, full-length human Regnase-1 with a FLAG …
Assay: AlphaScreen, blocks TBK1 binding to FL_Reg1

Binder | IC50 [µM]
B1 | 17.9
B2 | 8.3
B3 | 47.6
B4 | 5.6
B5 | 7.1
B6 | > 62.1
B7 | 7.7
B8 | 13.8
B9 | 2.4

Biological target: T2, ΔCTD_Reg1 (human Regnase-1 amino acids …)
Assay: cell-based or functional assay
Remark: another data set of the same source

Binder | IC50, phosphorylation by IKKβ [µM]
B1 | 4.5
B2 | 6.4
B3 | > 62.1
B4 | 39.3
B5 | 9
B6 | 27
B7 | 4
B8 | 43.2
B9 | 12.6

Biological target: T3, Reg1_301-599 (human Regnase-1 amino …)
Assay: cell-based or functional assay
Remark: another data set of the same source

Binder | IC50, phosphorylation by IKKβ [µM]
B1 | 3
B2 | 6.2
B3 | > 62.1
B4 | 37.2
B5 | 6.5
B6 | 20.7
B7 | 7.2
B8 | 23.2
B9 | 10.1

Biological target: T1, full-length human Regnase-1 with a FLAG …
Assay: cell-based or functional assay
Remark: another data set of the same source

Binder | IC50, phosphorylation by IKKβ [µM]
B1 | 0.8
B2 | 2.7
B3 | 24.7
B4 | 19.6
B5 | 1.6
B6 | 6.8
B7 | 5.3
B8 | 3.6
B9 | 5.4

Biological target: T1, full-length human Regnase-1 with a FLAG …
Assay: AlphaScreen, blocks IKKβ binding to FL_Reg1

Binder | IC50 [µM]
B1 | 15.1
B2 | 10.6
B3 | > 62.1
B4 | 20.7
B5 | 20.1
B6 | > 62.1
B7 | 8.8
B8 | 16.9
B9 | 5.8
